# In article PMC3351170 (Nucleic Acids Research, 2012):
# Positions count from the first letter of the chain named.
# B1: SATB1 ubiquitin-like domain (ULD), residues 71-172 (domain or fragment, mouse, UniProt Q60611 71-172, looked up)
# chain: GTMLPVFCVVEHYENAIEYDCKEEHAEFVLVRKDMLFNQLIEMALLSLGYSHSSAAQAKGLIQVGKWNPVPLSYVTDAPDATVADMLQDVYHVVTLKIQLHS
# B2: SATB1 EFH-AAA mutant, full length (natural protein, mouse, UniProt Q60611 1-764, looked up)
# chain: MDHLNEATQGKEHSEMSNNVSDPKGPPAKIARLEQNGSPLGRGRLGSTGGKMQGVPLKHSGHLMKTNLRKGTMLPVFCVVEHYENAIEYDCKEEHAAAVLVRKDMLFNQLIEMALLSLGYSHSSAAQAKGLIQVGKWNPVPLSYVTDAPDATVADMLQDVYAVVTLKIQLHSCPKLEDLPPEQWSHTTVRNALKDLLKDMNQSSLAKECPLSQSMISSIVNSTYYANVSAAKCQEFGRWYKHFKKTKDMMVEMDSLSELSQQGANHVNFGQQPVPGNTAEQPPSPAQLSHGSQPSVRTPLPNLHPGLVSTPISPQLVNQQLVMAQLLNQQYAVNRLLAQQSLNQQYLNHPPPVSRSMNKPLEQQVSTNTEVSSEIYQWVRDELKRAGISQAVFARVAFNRTQGLLSEILRKEEDPKTASQSLLVNLRAMQNFLQLPEAERDRIYQDERERSLNAASAMGPAPLLSTPPSRPPQVKTATLATERNGKPENNTMNINASIYDEIQQEMKRAKVSQALFAKVAATKSQGWLCELLRWKEDPSPENRTLWENLSMIRRFLSLPQPERDAIYEQESNAVHHHGDRPPHIIHVPAEQIQQQQQQQQQQQQQQQPPPPPPQPQPQPQAGPRLPPRQPTVASSAESDEENRQKTRPRTKISVEALGILQSFIQDVGLYPDEEAIQTLSAQLDLPKYTIIKFFQNQRYYLKHHGKLKDNSGLEVDVAEYKDEELLKDLEESVQDKNANTLFSVKLEEELSVEGSTDVNADLKD
# B3: SATB1 KWN-AAA mutant, full length (natural protein, mouse, UniProt Q60611 1-764, looked up)
# chain: B2 chain with A97E, A98F, K136A, W137A, N138A, A162H
# Experiments:
# [1] = molecular target: the molecule itself; test: SEC
# [2] = molecular target: the molecule itself; test: SEC; remark: listed apart in the source
# [3] = molecular target: the molecule itself; test: AUC
protein,measurement,setting,value
B1,stoichiometry N,[1],4
B2,binding result,[2],binds
B3,stoichiometry N,[3],2
